Measured values as given in article PMC3515676.

Assays:
Assay in all cases: purified protein
Assay type in all cases: biochemical, Homo sapiens
Conditions in all cases: 14 μM PAP[35S], 50 mM Mops pH 7.0, 37 °C
[1] = substrate: C[C@H](CCC(=O)NCC(=O)O)[C@H]1CC[C@H]2[C@@H]3[C@H](O)C[C@@H]4C[C@H](O)CC[C@]4(C)[C@H]3CC[C@]12C
[2] = substrate: C[C@H](CCC(=O)O)[C@H]1CC[C@H]2[C@@H]3CC[C@@H]4C[C@H](O)CC[C@]4(C)[C@H]3CC[C@]12C
[3] = substrate: C[C@H](CCC(=O)O)[C@H]1CC[C@H]2[C@@H]3[C@H](O)C[C@@H]4C[C@H](O)CC[C@]4(C)[C@H]3CC[C@]12C
[4] = substrate: C[C@H](CCCO)[C@H]1CC[C@H]2[C@@H]3[C@H](O)C[C@H]4C[C@H](O)CC[C@]4(C)[C@H]3C[C@H](O)[C@]12C

B1: human SULT2A1 (hSULT2A1) (Homo sapiens) (protein)
chain: MSDDFLWFEGIAFPTMGFRSETLRKVRDEFVIRDEDVIILTYPKSGTNWLAEILCLMHSKGDAKWIQSVPIWERSPWVESEIGYTALSETESPRLFSSHLPIQLFPKSFFSSKAKVIYLMRNPRDVLVSGYFFWKNMKFIKKPKSWEEYFEWFCQGTVLYGSWFDHIHGWMPMREEKNFLLLSYEELKQDTGRTIEKICQFLGKTLEPEELNLILKNSSFQSMKENKMSNYSLLSVDYVVDKAQLLRKGVSGDWKNHFTVAQAEDFDKLFQEKMADLPRELFPWE
In the case of B1, the Km [1] is reported as 36.73 ± 2.47 µM, the Vmax [1] is reported as 0.0038 µmol/min/mg and the Km [2] is reported as 8.36 ± 0.39 µM. For the same protein, the Vmax [2] was 0.036 µmol/min/mg, the Km [3] was 42.30 ± 2.97 µM and the Vmax [3] was 0.00395 µmol/min/mg. For the same protein, the Km [4] was 49.38 ± 4.62 µM and the Vmax [4] was 0.00549 µmol/min/mg.
